Laboratory results taken from paper PMC9868088.

Key:
[1] = WB abundance of GFP-β-catenin; conditions: glycan gained; control: GFP-β-catenin + individual aptamers T1 · AP3
[2] = WB abundance of endogenous β-catenin; conditions: glycan gained; control: individual aptamers T1 · bc339
[3] = WB phospho-specific antibody; conditions: glycan gained; control: GFP-β-catenin + individual aptamers T1 · AP3

Protein | expression_or_secretion [2] | other results
β-catenin: NL1F DS aptamers (protein) parent chain: MATQADLMELDMAMEPDRKAAVSHWQQQSYLDSGIHSGATTTAPSLSGKGNPEEEDVDTSQVLYEWEQGFSQSFTQEQVADIDGQYAMTRAQRVRAAMFPETLDEGMQIPSTQFDAAHPTNVQRLAEPSQMLKHAVVNLINYQDDAELATRAIPELTKLLNDEDQVVVNKAAVMVHQLSKKEASRHAIMRSPQMVSAIVRTMQNTNDVETARCTAGTLHNLSHHREGLLAIFKSGGIPALVKMLGSPVDSVLFYAITTLHNLLLHQEGAKMAVRLAGGLQKMVALLNKTNVKFLAITTDCLQILAYGNQESKLIILASGGPQALVNIMRTYTYEKLLWTTSRVLKVLSVCSSNKPAIVEAGGMQALGLHLTDPSQRLVQNCLWTLRNLSDAATKQEGMEGLLGTLVQLLGSDDINVVTCAAGILSNLTCNNYKNKMMVCQVGGIEALVRTVLRAGDREDITEPAICALRHLTSRHQEAEMAQNAVRLHYGLPVVVKLLHPPSHWPLIKATVGLIRNLALCPANHAPLREQGAIPRLVQLLVRAHQDTQRRTSMGGTQQQFVEGVRMEEIVEGCTGALHILARDVHNRIVIRGLNTIPLFVQLLYSPIENIQRVAAGVLCELAQDKEAAEAIEAEGATAPLTELLHSRNEGVATYAAAVLFRMSEDKPQDYKKRLSVELTSSLFRTEPMAWNETADLGLDIGAQGEPLGYRQDDPSYRSFHSGGYGQDALGMDPMMEHEMGGHHPGADYPVDGLPDLGHAQDLMDGLPPGDSNQLAWFDTDL |  | expression_or_secretion [1]: increases
β-catenin: 3JB8F+12 (protein) parent chain: MATQADLMELDMAMEPDRKAAVSHWQQQSYLDSGIHSGATTTAPSLSGKGNPEEEDVDTSQVLYEWEQGFSQSFTQEQVADIDGQYAMTRAQRVRAAMFPETLDEGMQIPSTQFDAAHPTNVQRLAEPSQMLKHAVVNLINYQDDAELATRAIPELTKLLNDEDQVVVNKAAVMVHQLSKKEASRHAIMRSPQMVSAIVRTMQNTNDVETARCTAGTLHNLSHHREGLLAIFKSGGIPALVKMLGSPVDSVLFYAITTLHNLLLHQEGAKMAVRLAGGLQKMVALLNKTNVKFLAITTDCLQILAYGNQESKLIILASGGPQALVNIMRTYTYEKLLWTTSRVLKVLSVCSSNKPAIVEAGGMQALGLHLTDPSQRLVQNCLWTLRNLSDAATKQEGMEGLLGTLVQLLGSDDINVVTCAAGILSNLTCNNYKNKMMVCQVGGIEALVRTVLRAGDREDITEPAICALRHLTSRHQEAEMAQNAVRLHYGLPVVVKLLHPPSHWPLIKATVGLIRNLALCPANHAPLREQGAIPRLVQLLVRAHQDTQRRTSMGGTQQQFVEGVRMEEIVEGCTGALHILARDVHNRIVIRGLNTIPLFVQLLYSPIENIQRVAAGVLCELAQDKEAAEAIEAEGATAPLTELLHSRNEGVATYAAAVLFRMSEDKPQDYKKRLSVELTSSLFRTEPMAWNETADLGLDIGAQGEPLGYRQDDPSYRSFHSGGYGQDALGMDPMMEHEMGGHHPGADYPVDGLPDLGHAQDLMDGLPPGDSNQLAWFDTDL | increases | 
β-catenin: NL1F30 (protein) parent chain: MATQADLMELDMAMEPDRKAAVSHWQQQSYLDSGIHSGATTTAPSLSGKGNPEEEDVDTSQVLYEWEQGFSQSFTQEQVADIDGQYAMTRAQRVRAAMFPETLDEGMQIPSTQFDAAHPTNVQRLAEPSQMLKHAVVNLINYQDDAELATRAIPELTKLLNDEDQVVVNKAAVMVHQLSKKEASRHAIMRSPQMVSAIVRTMQNTNDVETARCTAGTLHNLSHHREGLLAIFKSGGIPALVKMLGSPVDSVLFYAITTLHNLLLHQEGAKMAVRLAGGLQKMVALLNKTNVKFLAITTDCLQILAYGNQESKLIILASGGPQALVNIMRTYTYEKLLWTTSRVLKVLSVCSSNKPAIVEAGGMQALGLHLTDPSQRLVQNCLWTLRNLSDAATKQEGMEGLLGTLVQLLGSDDINVVTCAAGILSNLTCNNYKNKMMVCQVGGIEALVRTVLRAGDREDITEPAICALRHLTSRHQEAEMAQNAVRLHYGLPVVVKLLHPPSHWPLIKATVGLIRNLALCPANHAPLREQGAIPRLVQLLVRAHQDTQRRTSMGGTQQQFVEGVRMEEIVEGCTGALHILARDVHNRIVIRGLNTIPLFVQLLYSPIENIQRVAAGVLCELAQDKEAAEAIEAEGATAPLTELLHSRNEGVATYAAAVLFRMSEDKPQDYKKRLSVELTSSLFRTEPMAWNETADLGLDIGAQGEPLGYRQDDPSYRSFHSGGYGQDALGMDPMMEHEMGGHHPGADYPVDGLPDLGHAQDLMDGLPPGDSNQLAWFDTDL |  | other: Ser675 phosphorylation [3]: increases
β-catenin: NL8F100 (protein) parent chain: MATQADLMELDMAMEPDRKAAVSHWQQQSYLDSGIHSGATTTAPSLSGKGNPEEEDVDTSQVLYEWEQGFSQSFTQEQVADIDGQYAMTRAQRVRAAMFPETLDEGMQIPSTQFDAAHPTNVQRLAEPSQMLKHAVVNLINYQDDAELATRAIPELTKLLNDEDQVVVNKAAVMVHQLSKKEASRHAIMRSPQMVSAIVRTMQNTNDVETARCTAGTLHNLSHHREGLLAIFKSGGIPALVKMLGSPVDSVLFYAITTLHNLLLHQEGAKMAVRLAGGLQKMVALLNKTNVKFLAITTDCLQILAYGNQESKLIILASGGPQALVNIMRTYTYEKLLWTTSRVLKVLSVCSSNKPAIVEAGGMQALGLHLTDPSQRLVQNCLWTLRNLSDAATKQEGMEGLLGTLVQLLGSDDINVVTCAAGILSNLTCNNYKNKMMVCQVGGIEALVRTVLRAGDREDITEPAICALRHLTSRHQEAEMAQNAVRLHYGLPVVVKLLHPPSHWPLIKATVGLIRNLALCPANHAPLREQGAIPRLVQLLVRAHQDTQRRTSMGGTQQQFVEGVRMEEIVEGCTGALHILARDVHNRIVIRGLNTIPLFVQLLYSPIENIQRVAAGVLCELAQDKEAAEAIEAEGATAPLTELLHSRNEGVATYAAAVLFRMSEDKPQDYKKRLSVELTSSLFRTEPMAWNETADLGLDIGAQGEPLGYRQDDPSYRSFHSGGYGQDALGMDPMMEHEMGGHHPGADYPVDGLPDLGHAQDLMDGLPPGDSNQLAWFDTDL | increases | 
